Consider 91 sequences from the supplement of paper PMC9112550, “Optimization of the antimicrobial peptide Bac7 by deep mutational scanning” (BMC Biology, 2022).

This data set deals with Escherichia coli TOP10. The experiment in a line: shrunken log2 fold change of peptide-encoding DNA abundance (4.5 h post-induction vs induction); higher = less antimicrobial activity (less host growth inhibition). Particulars: time post-induction: 4.5 h; library: site-saturation at positions 5, 18, 19, 20.
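Also: peptides expressed intracellularly from a pBAD plasmid library in pooled LB shake-flask culture, induced with 0.3% L-arabinose, DNA abundance read by NGS, three biological replicates, DESeq2 with apeglm shrinkage.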

Take RRIRWRPPRLPRPRPRPMYPPRP: the “shrunken log2 fold change” value was -0.245.

With RRIRMRPPRLPRPRPRPAGYPRP, the “shrunken log2 fold change” value was 0.572.

As to RRIRQRPPRLPRPRPRPKDRPRP, the “shrunken log2 fold change” value is -0.115.

RRIRPRPPRLPRPRPRPCNGPRP: the “shrunken log2 fold change” value is -0.202.

For the sequence RRIRQRPPRLPRPRPRPNCYPRP, the “shrunken log2 fold change” value was -0.284.

For RRIRRRPPRLPRPRPRPVRAPRP, the “shrunken log2 fold change” value came to 0.935.

Turning to RRIRARPPRLPRPRPRPVYQPRP, the “shrunken log2 fold change” value was -0.068.

RRIRRRPPRLPRPRPRPEEIPRP: the “shrunken log2 fold change” value is -0.0243.

Take RRIRIRPPRLPRPRPRPSADPRP: the “shrunken log2 fold change” value was -0.235.

In the case of RRIRMRPPRLPRPRPRPMRDPRP, the “shrunken log2 fold change” value was determined as 1.3.

On to RRIRFRPPRLPRPRPRPFNWPRP, for which the “shrunken log2 fold change” value is -0.975.

In the case of RRIRERPPRLPRPRPRPGRAPRP, the “shrunken log2 fold change” value turned out to be 0.367.

For RRIRGRPPRLPRPRPRPLLWPRP, the “shrunken log2 fold change” value was 0.896.

For the sequence RRIRARPPRLPRPRPRPKDDPRP, the “shrunken log2 fold change” value came out at 0.811.

As for RRIRGRPPRLPRPRPRPNDWPRP, the “shrunken log2 fold change” value was determined as 0.235.

As for RRIRLRPPRLPRPRPRPRQKPRP, the “shrunken log2 fold change” value came to 0.154.

With RRIRERPPRLPRPRPRPEARPRP, the “shrunken log2 fold change” value is 0.164.

For the sequence RRIRLRPPRLPRPRPRPFMQPRP, the “shrunken log2 fold change” value came to 0.0179.

Regarding RRIRVRPPRLPRPRPRPTGIPRP, the “shrunken log2 fold change” value was -0.115.

In the case of RRIRVRPPRLPRPRPRPWGMPRP, the “shrunken log2 fold change” value came to 0.0336.

With RRIRERPPRLPRPRPRPELYPRP, the “shrunken log2 fold change” value is -0.0287.

As to RRIRYRPPRLPRPRPRPDHWPRP, the “shrunken log2 fold change” value is -0.166.

In the case of RRIRMRPPRLPRPRPRPDVNPRP, the “shrunken log2 fold change” value was found to be 0.0361.

With RRIRGRPPRLPRPRPRPPAMPRP, the “shrunken log2 fold change” value amounted to 1.23.

Take RRIRHRPPRLPRPRPRPWYCPRP: the “shrunken log2 fold change” value is -0.0324.

For RRIRLRPPRLPRPRPRPTHWPRP, the “shrunken log2 fold change” value came out at 0.416.

As to RRIRKRPPRLPRPRPRPMGYPRP, the “shrunken log2 fold change” value is -0.0267.

As to RRIRWRPPRLPRPRPRPLSMPRP, the “shrunken log2 fold change” value was -0.159.

With RRIRWRPPRLPRPRPRPLDGPRP, the “shrunken log2 fold change” value was 0.15.

As to RRIRERPPRLPRPRPRPGNNPRP, the “shrunken log2 fold change” value was -0.426.

Regarding RRIRFRPPRLPRPRPRPCSPPRP, the “shrunken log2 fold change” value is -0.674.

Take RRIRLRPPRLPRPRPRPHPPPRP: the “shrunken log2 fold change” value is 1.

RRIRQRPPRLPRPRPRPRLAPRP: the “shrunken log2 fold change” value was found to be 0.594.

As for RRIRYRPPRLPRPRPRPPMGPRP, the “shrunken log2 fold change” value was -0.239.

For RRIRPRPPRLPRPRPRPLEYPRP, the “shrunken log2 fold change” value was -0.56.

Take RRIRIRPPRLPRPRPRPILCPRP: the “shrunken log2 fold change” value was -0.0872.

In the case of RRIRNRPPRLPRPRPRPLPFPRP, the “shrunken log2 fold change” value is -0.153.

As to RRIRDRPPRLPRPRPRPLHQPRP, the “shrunken log2 fold change” value worked out at 0.302.

Turning to RRIRMRPPRLPRPRPRPNLDPRP, the “shrunken log2 fold change” value was 0.00884.

Turning to RRIRCRPPRLPRPRPRPNAPPRP, the “shrunken log2 fold change” value was 0.367.

For RRIRARPPRLPRPRPRPVVIPRP, the “shrunken log2 fold change” value turned out to be 0.206.

As for RRIRNRPPRLPRPRPRPYLAPRP, the “shrunken log2 fold change” value was -0.327.

Consider RRIRKRPPRLPRPRPRPLHDPRP, for which the “shrunken log2 fold change” value is 0.169.

As to RRIRNRPPRLPRPRPRPCMYPRP, the “shrunken log2 fold change” value is -0.0592.

For RRIRFRPPRLPRPRPRPGRNPRP, the “shrunken log2 fold change” value was -0.173.

RRIRGRPPRLPRPRPRPFKKPRP: the “shrunken log2 fold change” value is 0.0278.

Take RRIRMRPPRLPRPRPRPSNPPRP: the “shrunken log2 fold change” value is 0.155.

With RRIRSRPPRLPRPRPRPYTYPRP, the “shrunken log2 fold change” value is -0.0783.

Consider RRIRARPPRLPRPRPRPPGWPRP, for which the “shrunken log2 fold change” value was 1.22.

For the sequence RRIRHRPPRLPRPRPRPSVGPRP, the “shrunken log2 fold change” value was determined as 0.319.

For the sequence RRIRWRPPRLPRPRPRPGYAPRP, the “shrunken log2 fold change” value amounted to 0.38.

With RRIRVRPPRLPRPRPRPPCSPRP, the “shrunken log2 fold change” value was -0.116.

On to RRIRSRPPRLPRPRPRPPIVPRP, for which the “shrunken log2 fold change” value is -0.0118.

Take RRIRMRPPRLPRPRPRPNWQPRP: the “shrunken log2 fold change” value was found to be 0.00599.

With RRIRDRPPRLPRPRPRPCSEPRP, the “shrunken log2 fold change” value worked out at 0.283.

RRIRVRPPRLPRPRPRPNGPPRP: the “shrunken log2 fold change” value came to 0.144.

With RRIRVRPPRLPRPRPRPHKRPRP, the “shrunken log2 fold change” value worked out at 0.06.

As to RRIRKRPPRLPRPRPRPRTTPRP, the “shrunken log2 fold change” value worked out at 0.792.

As for RRIRPRPPRLPRPRPRPYCCPRP, the “shrunken log2 fold change” value was -0.384.

For RRIRRRPPRLPRPRPRPGCDPRP, the “shrunken log2 fold change” value was found to be 0.456.

For RRIRVRPPRLPRPRPRPVDHPRP, the “shrunken log2 fold change” value was -0.464.

For the sequence RRIRKRPPRLPRPRPRPNNYPRP, the “shrunken log2 fold change” value is -0.259.

Consider RRIRYRPPRLPRPRPRPHAHPRP, for which the “shrunken log2 fold change” value is -0.479.

As for RRIRSRPPRLPRPRPRPRLLPRP, the “shrunken log2 fold change” value came out at 0.229.

RRIRSRPPRLPRPRPRPFIMPRP: the “shrunken log2 fold change” value is -1.09.

On to RRIRCRPPRLPRPRPRPCDQPRP, for which the “shrunken log2 fold change” value came out at 0.143.

On to RRIRARPPRLPRPRPRPFMQPRP, for which the “shrunken log2 fold change” value was -0.0876.

Consider RRIRSRPPRLPRPRPRPFFEPRP, for which the “shrunken log2 fold change” value was -0.161.

With RRIRDRPPRLPRPRPRPDGKPRP, the “shrunken log2 fold change” value came out at 0.00996.

Regarding RRIRYRPPRLPRPRPRPMDWPRP, the “shrunken log2 fold change” value amounted to 0.0155.

RRIRLRPPRLPRPRPRPWAPPRP: the “shrunken log2 fold change” value is 1.18.

Take RRIRFRPPRLPRPRPRPPVRPRP: the “shrunken log2 fold change” value was 0.443.

Regarding RRIRGRPPRLPRPRPRPENGPRP, the “shrunken log2 fold change” value turned out to be 0.223.

Consider RRIRFRPPRLPRPRPRPNFYPRP, for which the “shrunken log2 fold change” value was -0.212.

Turning to RRIRLRPPRLPRPRPRPMTYPRP, the “shrunken log2 fold change” value is -0.0978.

In the case of RRIRKRPPRLPRPRPRPCISPRP, the “shrunken log2 fold change” value was 0.0183.

Consider RRIRGRPPRLPRPRPRPWQLPRP, for which the “shrunken log2 fold change” value is 0.372.

As to RRIRYRPPRLPRPRPRPQKHPRP, the “shrunken log2 fold change” value was -0.777.

As for RRIRLRPPRLPRPRPRPCFFPRP, the “shrunken log2 fold change” value was -0.13.

Turning to RRIRDRPPRLPRPRPRPFKRPRP, the “shrunken log2 fold change” value is -0.00875.

Take RRIRPRPPRLPRPRPRPEKAPRP: the “shrunken log2 fold change” value was 0.385.

Consider RRIRSRPPRLPRPRPRPDSNPRP, for which the “shrunken log2 fold change” value is -0.529.

Consider RRIRGRPPRLPRPRPRPHPFPRP, for which the “shrunken log2 fold change” value was -0.0384.

As to RRIRCRPPRLPRPRPRPLSLPRP, the “shrunken log2 fold change” value is -0.305.

Regarding RRIRYRPPRLPRPRPRPCITPRP, the “shrunken log2 fold change” value is -0.00269.

Regarding RRIRNRPPRLPRPRPRPPIWPRP, the “shrunken log2 fold change” value is -0.129.

Consider RRIRIRPPRLPRPRPRPEHLPRP, for which the “shrunken log2 fold change” value was -0.105.

Regarding RRIRHRPPRLPRPRPRPWTEPRP, the “shrunken log2 fold change” value came out at 0.0218.

For RRIRSRPPRLPRPRPRPQEVPRP, the “shrunken log2 fold change” value is -0.0423.

Turning to RRIRWRPPRLPRPRPRPPGTPRP, the “shrunken log2 fold change” value was 0.475.

Take RRIRCRPPRLPRPRPRPPWWPRP: the “shrunken log2 fold change” value worked out at 2.01.
